# Results published in paper PMC4456160 (Nature structural & molecular biology, 2015).
# Positions count from the first letter of the chain named. In names and notes the source's numbering stands. Read-outs that look alike come from different tables or passages of the source.
# T1: full length ectodomain of human RGMC (eRGMC) (human, UniProt Q6ZVN8 36-400)
# T1 sequence: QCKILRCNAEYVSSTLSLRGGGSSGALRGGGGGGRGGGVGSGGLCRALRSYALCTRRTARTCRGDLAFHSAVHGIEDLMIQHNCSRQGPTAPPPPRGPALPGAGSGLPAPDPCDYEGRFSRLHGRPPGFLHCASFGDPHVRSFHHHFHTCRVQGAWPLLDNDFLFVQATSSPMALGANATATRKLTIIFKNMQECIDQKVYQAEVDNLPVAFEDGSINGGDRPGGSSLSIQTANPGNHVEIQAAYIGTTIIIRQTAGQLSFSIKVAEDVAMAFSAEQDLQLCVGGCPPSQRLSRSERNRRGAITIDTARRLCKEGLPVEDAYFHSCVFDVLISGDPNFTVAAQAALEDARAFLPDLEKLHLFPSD
# B1: full length ectodomain of human RGMB (eRGMB) (domain or fragment)
# chain: QCRIQKCTTDFVSLTSHLNSAVDGFDSEFCKALRAYAGCTQRTSKACRGNLVYHSAVLGISDLMSQRNCSKDGPTSSTNPEVTHDPCNYHSHAGAREHRRGDQNPPSYLFCGLFGDPHLRTFKDNFQTCKVEGAWPLIDNNYLSVQVTNVPVVPGSSATATNKITIIFKAHHECTDQKVYQAVTDDLPAAFVDGTTSGGDSDAKSLRIVERESGHYVEMHARYIGTTVFVRQVGRYLTLAIRMPEDLAMSYEESQDLQLCVNGCPLSERIDDGQGQVSAILGHSLPRTSLVQAWPGYTLETANTQCHEKMPVKDIYFQSCVFDLLTTGDANFTAAAHSALEDVEALHPRKERWHIFPSSG
# B2: human BMP2 (Bone Morphogenetic Protein 2), disulfide-linked dimer (ligand)
# chain: QAKHKQRKRLKSSCKRHPLYVDFSDVGWNDWIVAPPGYHAFYCHGECPFPLADHLNSTNHAIVQTLVNSVNSKIPKACCVPTELSAISMLYLDENEKVVLKNYQDMVVEGCGCR
# B3: N-terminal domain of human RGMB (RGMBND) (domain or fragment)
# chain: QCRIQKCTTDFVSLTSHLNSAVDGFDSEFCKALRAYAGCTQRTSKACRGNLVYHSAVLGISDLMSQRNCSKDGPTSSTNPEVTH
# B4: secreted ectodomain of human BMPR1A (eBMPR1A) (receptor)
# chain: TLAPEDTLPFLKCYCSGHCPDDAINNTCITNGHCFAIIEEDDQGETTLASGCMKYEGSDFQCKDSPKAQLRRTIECCRTNLCNQYLQPTLPPV
# B5: mouse NEO1 FN5-FN6 with juxtamembrane stretch (NEO1FN56M) (domain or fragment)
# chain: TPMMPPVGVQASILSHDTIRITWADNSLPKHQKITDSRYYTVRWKTNIPANTKYKNANATTLSYLVTGLKPNTLYEFSVMVTKGRRSSTWSMTAHGATFELVPTSPPKDVTVVSKEGKPRTIIVNWQPPSEANGKITGYIIYYSTDVNAEIHDWVIEPVVGNRLTHQIQELTLDTPYYFKIQARNSKGMGPMSEAVQFRTPKADSSDKMPNDQALGSAGKGSRLPDLGSDYKPPMSGSNSPHGSPTSPLDSN
# B6: N-terminal domain of human RGMA (RGMAND) (domain or fragment)
# chain: TSPCKILKCNSEFWSATSGSHAPASDDTPEFCAALRSYALCTRRTARTCRGDLAYHSAVHGIEDLMSQHNCSKDGPTSQPRLRTLPPAGDSQERS
# B7: N-terminal domain of human RGMC (RGMCND) (domain or fragment)
# chain: QCKILRCNAEYVSSTLSLRGGGSSGALRGGGGGGRGGGVGSGGLCRALRSYALCTRRTARTCRGDLAFHSAVHGIEDLMIQHNCSRQGPTAPPPPRGPALPGAGSGLPAPDP
# B8: RGMCND-G99R (domain or fragment)
# chain: B7 chain with G64R
# B9: RGMCND-L101P (domain or fragment)
# chain: B7 chain with L66P
# B10: mouse NEO1 fifth and sixth fibronectin type III domains (NEO1FN56) (domain or fragment)
# chain: TPMMPPVGVQASILSHDTIRITWADNSLPKHQKITDSRYYTVRWKTNIPANTKYKNANATTLSYLVTGLKPNTLYEFSVMVTKGRRSSTWSMTAHGATFELVPTSPPKDVTVVSKEGKPRTIIVNWQPPSEANGKITGYIIYYSTDVNAEIHDWVIEPVVGNRLTHQIQELTLDTPYYFKIQARNSKGMGPMSEAVQFRTP
# Key:
# [1] = target: human BMP2 (Bone Morphogenetic Protein 2), disulfide-linked dimer (human) (UniProt P12643); assay: SPR
# [2] = target: B2; assay: SAXS
# [3] = target: B2; assay: crystal structure
# [4] = target: B1; assay: SPR
# [5] = target: T1, full length ectodomain of human RGMC …; assay: SPR
# crystal structure = target: the molecule itself; assay: crystal structure
# [6] = target: B2; assay: SPR
# [7] = target: B2; assay: SEC-MALS
# [8] = target: B2; assay: SPR; remark: listed apart in the source
# [9] = target: B1; assay: SAXS
# [10] = target: B2; assay: crystal structure; remark: listed apart in the source
# [11] = target: B1; assay: crystal structure
molecule,measurement,setting,value
RGMC H104A mutant (from UniProt Q6ZVN8 36-147) (domain or fragment),Kd,[1],280 nM
B1,stoichiometry N,[2],2 eRGMB per BMP2 dimer (printed 2:2:2)
same,stoichiometry N,[3],2 RGMB per BMP2 dimer
B2,binding result,[4],binds
same,binding result,[5],binds
same,stoichiometry N,crystal structure,2
B3,Kd,[6],88 nM
same,stoichiometry N,[7],2 RGMBND per disulfide-linked BMP2 dimer (printed 2:2)
B4,Kd,[8],280 nM
same,stoichiometry N,[7],2 eBMPR1A per disulfide-linked BMP2 dimer (printed 2:2)
B5,stoichiometry N,[9],1 NEO1 per eRGMB (printed 2:2:2)
B6,binding result,[10],binds
B7,Kd,[6],124 nM
same,stoichiometry N,[10],2 RGMC per BMP2 dimer
B8,Kd,[6],910 nM
B9,Kd,[6],1500 nM
B10,binding result,[11],binds
